Data: paper PMC3158066, “An Inserted α/β Subdomain Shapes the Catalytic Pocket of Lactobacillus johnsonii Cinnamoyl Esterase” (PLoS ONE, 2011)
Changes are numbered by the printed parent chain. Names and notes keep the numbering of the source.

B1: apo-LJ0536 (wild type), as crystallised after treatment with subtilisin (enzyme, Lactobacillus johnsonii N6.2, UniProt D3YEX6 1-245, looked up)
chain: MATITLERDGLQLVGTREEPFGEIYDMAIIFHGFTANRNTSLLREIANSLRDENIASVRFDFNGHGDSDGKFENMTVLNEIEDANAILNYVKTDPHVRNIYLVGHSQGGVVASMLAGLYPDLIKKVVLLAPAATLKGDALEGNTQGVTYNPDHIPDRLPFKDLTLGGFYLRIAQQLPIYEVSAQFTKPVCLIHGTDDTVVSPNASKKYDQIYQNSTLHLIEGADHCFSDSYQKNAVNLTTDFLQN
notes: LJ0536, serine cinnamoyl esterase, Lactobacillus johnsonii N6.2; residues 1-245 seen in the map, four C-terminal residues lost to the protease, plus five residues of the expression tag; Crystallised with the His6 tag uncleaved, but only five residues of the expression tag are seen after the protease treatment; also called apo WT LJ0536; not shown: His6, N-terminal, kept
B2: LJ0536 (cinnamoyl esterase) (Lactobacillus johnsonii; H225A) (protein)
chain: MATITLERDGLQLVGTREEPFGEIYDMAIIFHGFTANRNTSLLREIANSLRDENIASVRFDFNGHGDSDGKFENMTVLNEIEDANAILNYVKTDPHVRNIYLVGHSQGGVVASMLAGLYPDLIKKVVLLAPAATLKGDALEGNTQGVTYNPDHIPDRLPFKDLTLGGFYLRIAQQLPIYEVSAQFTKPVCLIHGTDDTVVSPNASKKYDQIYQNSTLHLIEGADACFSDSYQKNAVNLTTDFLQNNNAF
notes: full length in p15TV-L, E. coli BL21(DE3); His6-tag removed by TEV for kinetics; crystals: tag uncleaved, protease-treated (subtilisin or V8), residues 1-245 modelled, four C-terminal residues lost
B3: LJ0536 (cinnamoyl esterase) (Lactobacillus johnsonii; S68A) (protein)
chain: B2 chain with S68A, A225H
notes: as for B2
B4: LJ0536 (cinnamoyl esterase) (Lactobacillus johnsonii; H32A) (protein)
chain: B2 chain with H32A, A225H
notes: as for B2
B5: LJ0536 Ser106Ala mutant, as crystallised after treatment with V8 protease (enzyme, Lactobacillus johnsonii N6.2)
chain: B2 chain with S106A, A225H
notes: made from the p15TV-L wild-type clone; also called LJ0536 S106A; S106A; not shown: His6, N-terminal, kept
B6: LJ0536 (cinnamoyl esterase) (Lactobacillus johnsonii; D138A) (protein)
chain: B2 chain with D138A, A225H
notes: as for B2
B7: LJ0536 (cinnamoyl esterase) (Lactobacillus johnsonii; Q145A) (protein)
chain: B2 chain with Q145A, A225H
notes: as for B2
B8: LJ0536, cinnamoyl esterase of Lactobacillus johnsonii N6.2 (wild type) (enzyme, UniProt D3YEX6 1-249, looked up)
chain: B2 chain with A225H
notes: LJ0536, serine cinnamoyl esterase, Lactobacillus johnsonii N6.2; the crystallised fragment 1-245 is said to lack four C-terminal residues of the full-length protein; The protein as used for gel filtration; also called WT
B9: LJ0536 (cinnamoyl esterase) (Lactobacillus johnsonii; DEL147-173) (protein)
chain: MATITLERDGLQLVGTREEPFGEIYDMAIIFHGFTANRNTSLLREIANSLRDENIASVRFDFNGHGDSDGKFENMTVLNEIEDANAILNYVKTDPHVRNIYLVGHSQGGVVASMLAGLYPDLIKKVVLLAPAATLKGDALEGNTQGQQLPIYEVSAQFTKPVCLIHGTDDTVVSPNASKKYDQIYQNSTLHLIEGADHCFSDSYQKNAVNLTTDFLQNNNAF
notes: as for B2

Assays:
[1] = biological target: T1, LJ0536 (cinnamoyl esterase) (Lactobacillus johnsonii, UniProt D3YEX6, S106A); assay: X-ray crystallography, co-crystal; type: binding; settings: 0.1 M Tris pH 8.5, active site
T1 construct: gene FEE39_08260; full length in p15TV-L, E. coli BL21(DE3); His6-tag removed by TEV for kinetics; crystals: tag uncleaved, protease-treated (subtilisin or V8), residues 1-245 modelled, four C-terminal residues lost

[2] = biological target: the molecule itself; assay: crystal structure; sitting drop, protein at 15 mg/mL with His6-tag uncleaved, pre-treated with subtilisin (apo) or V8 protease (S106A); S106A co-crystallised with ethyl ferulate
purified protein = substrate: CCCC(=O)Oc1ccc([N+](=O)[O-])cc1; assay: purified protein; type: biochemical, Lactobacillus johnsonii; settings: HEPES pH 7.80, 25 °C (typical assay; saturation conditions as in ref 14), pH 7.8
[3] = biological target: the molecule itself; assay: SEC; gel filtration on Superose 12 10/300GL (FPLC), mobile phase 10 mM HEPES with 150 mM NaCl, calibrated with molecular weight standards
[4] = deletion made by ligation at a SmaI junction

T1 sequence (D3YEX6 entry or part of it S106A): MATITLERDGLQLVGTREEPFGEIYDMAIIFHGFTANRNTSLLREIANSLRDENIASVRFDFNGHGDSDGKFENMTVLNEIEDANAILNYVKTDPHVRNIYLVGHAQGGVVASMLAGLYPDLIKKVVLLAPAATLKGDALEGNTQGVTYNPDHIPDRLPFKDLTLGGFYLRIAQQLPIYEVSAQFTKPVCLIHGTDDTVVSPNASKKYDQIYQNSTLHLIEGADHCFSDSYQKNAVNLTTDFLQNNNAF

Molecule	Km (purified protein)	Vmax (purified protein)	kcat (purified protein)	kcat/Km (purified protein)	also measured
COc1cc(/C=C/C(=O)O)ccc1O [ferulic acid]					X-ray crystallography, co-crystal ([1]; 5 mM ligand, 1.75 Å): co-crystallized this mutant with ferulic acid, ethyl ferulate, or chlorogenic acid
CCOC(=O)/C=C/c1ccc(O)c(OC)c1 [ethyl ferulate]					X-ray crystallography, co-crystal ([1]; Form I (5 mM ligand, 1.58 Å, 3PFB) and Form II (25 mM ligand, 1.82 Å, 3QM1)): The Ser106Ala-ethyl ferulate complex crystallized in two forms
B1					binding result [2]: binds
B2	190 ± 40 µM	0.65 µmol/min/mg	0.3 s⁻¹	1570 M⁻¹ s⁻¹	
B3	80 ± 20 µM	0.47 µmol/min/mg	0.22 s⁻¹		
B4	130 ± 80 µM	0.09 µmol/min/mg	0.04 s⁻¹	318 M⁻¹ s⁻¹	
B5					binding result [2]: binds
B6	220 ± 30 µM	1.23 µmol/min/mg	0.57 s⁻¹	2570 M⁻¹ s⁻¹	
B7	290 ± 40 µM	2.05 µmol/min/mg	0.94 s⁻¹	3250 M⁻¹ s⁻¹	
B8	160 ± 20 µM	3.34 µmol/min/mg	1.53 s⁻¹	9590 M⁻¹ s⁻¹	binding result [3]: binds
B9					Km (purified protein; [4]): 650 ± 120 µM; Vmax (purified protein; [4]): 0.28 µmol/min/mg; kcat (purified protein; [4]): 0.13 s⁻¹; kcat/Km (purified protein; [4]): 198 M⁻¹ s⁻¹
